Results taken from publication PMC6096475, “Structure of the GH9 glucosidase/glucosaminidase from Vibrio cholerae” (Acta Crystallographica. Section F, Structural Biology …, 2018).

Test system: Cc1cc(=O)oc2cc(O[C@@H]3O[C@H](CO)[C@@H](O)[C@H](O)[C@H]3O)ccc12
Assay: purified protein
Settings: 20 mM sodium phosphate pH 6.5, 1 µM enzyme, temperature not stated

## VC0615 (Vibrio cholerae O1 biovar El Tor str. N16961)
  Km: 768 µM
  kcat: 0.0217 s⁻¹
